Results reported in paper PMC7962591 (Cell, 2021).

B1: COV2-2489 (human mAb, recombinant IgG1) (antibody, V domains shown)
VH: QLQLQESGPGLVKPSETLSLTCTVSGGSISSTTYYWGWIRQPPGKGLEWIASIYYSGSTYYNPSLKSRLTVSVDTSKNQFSLKLSSVTAADTAVYYCARQWKWFGEAWYFDLWGRGTLVTVSS
VL: not shown
B2: COV2-2676 (human mAb, recombinant IgG1) (antibody, V domains shown)
VH: QVQLVQSGAEVKKPGSSVKVSCKASGGTFSSYAINWVRQAPGQGLEWMGGIIPIFGTANYAQKFQGRVTFTADESTSTAYMEVSSLRSEDTAVYYCARSCGDCYSADLDFWGQGTLVTVSS
VL: EIVLTQSPATLSLSPGERATLSCRASQSISSFLAWYQQKPGQAPRLLIYDASNRATGIPARFSGSGSGTDFTLTISSLEPEDFAVYYCQRRSNWPPFTFGPGTKVDIK

Target: SARS-CoV-2 (strain Wuhan-Hu-1) spike protein, wild type, full-length expression construct (SARS-CoV-2, Wuhan-Hu-1, UniProt P0DTC2)
Assay: flow cytometry on cells

| Binder | binding result |
| --- | --- |
| B1 | binds |
| B2 | binds |
